B1: Sp1 site -336/-315 probe (Sp1_EMSA3) (dsDNA)
DNA 1: GGGGGCCTCGCCCCTTTGGGGC
DNA 2: GCCCCAAAGGGGCGAGGCCCCC
B2: Sp1 consensus probe (Sp1_EMSA1) (dsDNA)
DNA 1: ATTCGATCGGGGCGGGGCGAGC
DNA 2: GCTCGCCCCGCCCCGATCGAAT
B3: Sp1 site -403/-382 probe (Sp1_EMSA2) (dsDNA)
DNA 1: CGGGGCCCCGCCCGGGCCAGCC
DNA 2: GGCTGGCCCGGGCGGGGCCCCG

Target: Sp1 (recombinant, Sigma-Aldrich SRP2030) (UniProt P08047 1-785)
Assay: EMSA

Chain of Sp1 (recombinant, Sigma-Aldrich SRP2030) (P08047 whole entry): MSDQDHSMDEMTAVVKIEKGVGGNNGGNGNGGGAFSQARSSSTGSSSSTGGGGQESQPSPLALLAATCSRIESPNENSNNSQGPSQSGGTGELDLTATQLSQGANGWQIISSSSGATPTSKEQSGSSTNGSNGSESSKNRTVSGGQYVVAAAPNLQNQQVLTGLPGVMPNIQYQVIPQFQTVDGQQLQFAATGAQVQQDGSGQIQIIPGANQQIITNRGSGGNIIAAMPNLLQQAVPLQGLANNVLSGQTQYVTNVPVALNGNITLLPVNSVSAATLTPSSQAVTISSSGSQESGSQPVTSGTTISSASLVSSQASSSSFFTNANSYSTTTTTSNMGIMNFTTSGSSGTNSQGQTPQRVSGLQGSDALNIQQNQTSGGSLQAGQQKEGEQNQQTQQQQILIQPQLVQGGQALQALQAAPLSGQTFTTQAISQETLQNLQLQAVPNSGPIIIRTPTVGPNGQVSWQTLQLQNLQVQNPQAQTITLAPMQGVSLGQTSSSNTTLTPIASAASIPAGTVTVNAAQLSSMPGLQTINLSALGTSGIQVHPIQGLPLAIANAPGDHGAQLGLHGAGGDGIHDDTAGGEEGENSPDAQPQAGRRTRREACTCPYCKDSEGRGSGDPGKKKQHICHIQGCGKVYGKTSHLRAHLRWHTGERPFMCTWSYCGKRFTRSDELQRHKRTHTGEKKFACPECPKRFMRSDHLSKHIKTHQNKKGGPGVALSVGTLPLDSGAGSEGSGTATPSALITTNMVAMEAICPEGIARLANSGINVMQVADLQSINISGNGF

Binder	binding result
B1	binds
B2	binds
B3	binds

Reference: publication PMC4515812
